{
  "source": "paper PMC5159607",
  "substrate": "Oc1ccc2c(c1)OC[C@@]1(O)c3ccc(O)cc3O[C@@H]21",
  "test": "HPLC prenyltransferase assay, recombinant yeast microsomes, Lineweaver-Burk",
  "type": "biochemical, Glycine max",
  "conditions": "400 µM DMAPP, divalent cation required (Mg2+ preferred), 30 °C, 15 min",
  "data": [
    {"protein": "G2DT (PT7; ΔTP-PT7) (Glycine max) (protein) YKKKTQIECNILRSQQSSLNHHYKRIEGGATYQDCDKKYVVKAIPEPTFDSEPCASNPENVVDSAKKILDVFYHFCYPYSMIAIILCAISSSLLAVEKPSDISSSFLIGVLQALVPHLFVAVFANVVNQVFDYEIDKINKPYLPLASGQLSFTTAVFIAASLLIMSFWLSLVIGSWPLIWNVVLTSSVWNVYSINVPLLRWKRHPLLATICTISVWAFILPITFFLHMQTFVLKRPIVFPRSLIFYVVFMIFYSLGMALSKDISDVKGDKAYGIDTLAIRLGQKWVFWICIILFEMAFGVALLAGATSSYLWIKIVTGLGHAILASILLYQAKSIYLSNKVSTISFYMLIWKLLYAAYFLMALIR", "values": [
      {"measurement": "Km", "result": 183, "unit": "µM"}
    ]}
  ]
}
